# Measured values taken from doi:10.1101/2025.06.13.659517, “Analysis of apo and citraconate-bound hACOD1 (hIRG1) by X-ray crystallography and NMR spectroscopy: Structural insights for developing chemotherapeutic agents” (bioRxiv, 2025).
# Key:
# [1] = substrate: O=C(O)/C=C(/CC(=O)O)C(=O)O; assay: purified protein; assay type: biochemical, Homo sapiens; settings: active site
# [2] = biological target: the molecule itself; assay: crystal structure; crystals of apo and citraconate-bound hACOD1 (4-461) grown in conditions containing calcium acetate; solved by molecular replacement with PDB 6R6U; two protomers (chains A and B) form the dimer
protein,measurement,setting,value
"Human aconitate decarboxylase 1 (hACOD1), residues 4-461 (enzyme, UniProt A6NK06 4-461, looked up, The tag actually on the construct is therefore uncertain; also called hIRG1; hACOD1 (4-461); source: E. coli BL21-CodonPlus (RIPL), purified (StrepTactin column, TEV protease, SEC)) KSITESFATAIHGLKVGHLTDRVIQRSKRMILDTLGAGFLGTTTEVFHIASQYSKIYSSNISSTVWGQPDIRLPPTYAAFVNGVAIHSMDFDDTWHPATHPSGAVLPVLTALAEALPRSPKFSGLDLLLAFNVGIEVQGRLLHFAKEANDMPKRFHPPSVVGTLGSAAAASKFLGLSSTKCREALAIAVSHAGAPMANAATQTKPLHIGNAAKHGIEAAFLAMLGLQGNKQVLDLEAGFGAFYANYSPKVLPSIASYSWLLDQQDVAFKRFPAHLSTHWVADAAASVRKHLVAERALLPTDYIKRIVLRIPNVQYVNRPFPVSEHEARHSFQYVACAMLLDGGITVPSFHECQINRPQVRELLSKVELEYPPDNLPSFNILYCEISVTLKDGATFTDRSDTFYGHWRKPLSQEDLEEKFRANASKMLSWDTVESLIKIVKNLEDLEDCSVLTTLLKGP",Km,[1],9.3 ± 2.1 mM
same,stoichiometry N,[2],2
